Experimental findings from patent publication US20180085469A1 are described below.

Assay [1] concerns the target Human trophoblast cell-surface antigen (TROP-2) (human) (UniProt P09758). Kind of assay: flow cytometry, surface, NCI-N87 cells.
The target is the same in assay [2]. The experiment in a line: flow cytometry, surface, Capan-1 cells.
For assay [3], the target named is CD22 (human) (UniProt P20273). Kind of assay: flow cytometry, REH cells, FITC goat anti-human IgG detection.
Assay [4] deals with CD22 (human) (UniProt P20273). Kind of assay: flow cytometry, WSU-FSCCL cells, FITC goat anti-human IgG detection.
Assay [5] has as its target CD22 (human) (UniProt P20273). The experiment in a line: flow cytometry, Raji cells, FITC goat anti-human IgG detection.
For assay [6], the target named is CD22 (human) (UniProt P20273). The experiment in a line: flow cytometry, Daudi cells, FITC goat anti-human IgG detection.
For assay [7], the target named is CD22 (human) (UniProt P20273). The experiment in a line: flow cytometry, MN-60 cells, FITC goat anti-human IgG detection.
Assay [8] deals with CD22 (human) (UniProt P20273). Kind of assay: flow cytometry, RS4;11 cells, FITC goat anti-human IgG detection.
Assay [9] concerns the target CD22 (human) (UniProt P20273). The experiment in a line: flow cytometry, 697 cells, FITC goat anti-human IgG detection.
In assay [10] the target is CD22 (human) (UniProt P20273). Kind of assay: flow cytometry, Ramos cells, FITC goat anti-human IgG detection.
Assay [11] concerns the target CD22 (human) (UniProt P20273). The experiment in a line: flow cytometry, Jeko-1 cells, FITC goat anti-human IgG detection.
Assay [12] addresses CD74 (invariant chain, Ii) (human) (UniProt P04233). Kind of assay: flow cytometry, surface, HuH-7 cells, GAH-FITC detection.
The target is the same in assay [13]. The experiment in a line: flow cytometry, surface and cytoplasmic (permeabilized), HuH-7 cells; ratio to background.
Assay [14] shares this target. The experiment in a line: flow cytometry, surface, NCI-N87 cells; ratio to background (GAH-FITC only).
Assay [15] shares this target. The experiment in a line: flow cytometry, surface, Hs746T cells, GAH-FITC detection.
Assay [16] has the same target. Kind of assay: flow cytometry, surface and cytoplasmic (permeabilized), Raji cells.
Assay [17] has the same target. Kind of assay: flow cytometry, surface and cytoplasmic (permeabilized), Hep-G2 cells; ratio to background.
Assay [18] shares this target. The experiment in a line: flow cytometry, surface and cytoplasmic (permeabilized), A-375 cells.
For assay [19] the target is unchanged. The experiment in a line: flow cytometry, surface, Capan-1 cells; ratio to background (GAH-FITC only).
For assay [20] the target is unchanged. The experiment in a line: flow cytometry, surface, NCI-N87 cells, GAH-FITC detection.
Assay [21] has the same target. The experiment in a line: flow cytometry, surface and cytoplasmic (permeabilized), HuH-7 cells.
The target is the same in assay [22]. The experiment in a line: flow cytometry, surface and cytoplasmic (permeabilized), Hs746T cells.
For assay [23] the target is unchanged. The experiment in a line: flow cytometry, surface and cytoplasmic (permeabilized), NCI-N87 cells; ratio to background.
Assay [24] has the same target. The experiment in a line: flow cytometry, surface and cytoplasmic (permeabilized), Hs746T cells; ratio to background.
The target is the same in assay [25]. Kind of assay: flow cytometry, surface and cytoplasmic (permeabilized), A-375 cells; ratio to background.
For assay [26] the target is unchanged. The experiment in a line: flow cytometry, surface, Hep-G2 cells, GAH-FITC detection.
For assay [27] the target is unchanged. The experiment in a line: flow cytometry, surface, Raji cells, GAH-FITC detection.
Assay [28] shares this target. Kind of assay: flow cytometry, surface, Hep-G2 cells; ratio to background (GAH-FITC only).
For assay [29] the target is unchanged. Kind of assay: flow cytometry, surface, Capan-1 cells, GAH-FITC detection.
The target is the same in assay [30]. The experiment in a line: flow cytometry, surface and cytoplasmic (permeabilized), NCI-N87 cells.
For assay [31] the target is unchanged. The experiment in a line: flow cytometry, surface and cytoplasmic (permeabilized), Raji cells; ratio to background.
Assay [32] has the same target. Kind of assay: flow cytometry, surface, A-375 cells; ratio to background (GAH-FITC only).
The target is the same in assay [33]. Kind of assay: flow cytometry, surface and cytoplasmic (permeabilized), Capan-1 cells; ratio to background.
The target is the same in assay [34]. The experiment in a line: flow cytometry, surface and cytoplasmic (permeabilized), Capan-1 cells.
Assay [35] shares this target. The experiment in a line: flow cytometry, surface, HuH-7 cells; ratio to background (GAH-FITC only).
Assay [36] shares this target. The experiment in a line: flow cytometry, surface, A-375 cells, GAH-FITC detection.
For assay [37] the target is unchanged. The experiment in a line: flow cytometry, surface, Hs746T cells; ratio to background (GAH-FITC only).
For assay [38] the target is unchanged. The experiment in a line: cell binding assay on antigen-positive cells.
The target is the same in assay [39]. Kind of assay: flow cytometry, surface, Raji cells; ratio to background (GAH-FITC only).
Assay [40] has the same target. Kind of assay: flow cytometry, surface and cytoplasmic (permeabilized), Hep-G2 cells.
Assay [41] deals with CEACAM6 (human) (UniProt P40199). The experiment in a line: flow cytometry, surface, Hep-G2 cells.
Chain of CEACAM6 (human) (P40199 35-320): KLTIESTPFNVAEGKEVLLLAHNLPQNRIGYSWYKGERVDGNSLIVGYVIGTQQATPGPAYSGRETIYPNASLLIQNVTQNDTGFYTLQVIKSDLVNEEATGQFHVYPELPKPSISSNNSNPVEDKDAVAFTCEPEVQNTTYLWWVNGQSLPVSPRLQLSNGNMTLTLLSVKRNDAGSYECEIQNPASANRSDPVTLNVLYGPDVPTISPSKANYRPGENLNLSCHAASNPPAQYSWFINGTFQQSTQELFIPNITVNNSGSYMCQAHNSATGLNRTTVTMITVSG
Assay [42] has the same target. Kind of assay: flow cytometry, surface, NCI-N87 cells.
Assay [43] has the same target. The experiment in a line: flow cytometry, surface, HuH-7 cells.
Assay [44] concerns the target T1, CD20 (human) (UniProt P11836).
T1 sequence (looked up): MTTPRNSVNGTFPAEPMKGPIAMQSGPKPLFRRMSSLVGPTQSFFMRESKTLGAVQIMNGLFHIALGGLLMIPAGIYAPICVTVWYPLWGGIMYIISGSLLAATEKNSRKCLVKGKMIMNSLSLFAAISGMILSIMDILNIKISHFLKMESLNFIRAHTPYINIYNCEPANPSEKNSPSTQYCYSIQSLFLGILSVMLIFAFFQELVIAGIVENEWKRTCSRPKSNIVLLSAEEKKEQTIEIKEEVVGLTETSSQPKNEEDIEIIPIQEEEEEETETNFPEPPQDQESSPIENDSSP
Kind of assay: flow cytometry, REH cells, FITC goat anti-human IgG detection.

The target of assay [45] is T1, CD20 (human). The experiment in a line: flow cytometry, WSU-FSCCL cells, FITC goat anti-human IgG detection.
The target of assay [46] is T1, CD20 (human). Kind of assay: flow cytometry, Raji cells, FITC goat anti-human IgG detection.
Assay [47] concerns the target T1, CD20 (human). The experiment in a line: flow cytometry, RS4;11 cells, FITC goat anti-human IgG detection (background 4.1).
In assay [48] the target is T1, CD20 (human). Kind of assay: flow cytometry, Daudi cells, FITC goat anti-human IgG detection.
Assay [49] concerns the target T1, CD20 (human). The experiment in a line: flow cytometry, MN-60 cells, FITC goat anti-human IgG detection.
Assay [50] concerns the target T1, CD20 (human). Kind of assay: flow cytometry, 697 cells, FITC goat anti-human IgG detection.
In assay [51] the target is T1, CD20 (human). Kind of assay: flow cytometry, Ramos cells, FITC goat anti-human IgG detection.
The target in assay [52] is T1, CD20 (human). Kind of assay: flow cytometry, Jeko-1 cells, FITC goat anti-human IgG detection.

Chain of CD74 (invariant chain, Ii) (human) (P04233 whole entry, change not shown): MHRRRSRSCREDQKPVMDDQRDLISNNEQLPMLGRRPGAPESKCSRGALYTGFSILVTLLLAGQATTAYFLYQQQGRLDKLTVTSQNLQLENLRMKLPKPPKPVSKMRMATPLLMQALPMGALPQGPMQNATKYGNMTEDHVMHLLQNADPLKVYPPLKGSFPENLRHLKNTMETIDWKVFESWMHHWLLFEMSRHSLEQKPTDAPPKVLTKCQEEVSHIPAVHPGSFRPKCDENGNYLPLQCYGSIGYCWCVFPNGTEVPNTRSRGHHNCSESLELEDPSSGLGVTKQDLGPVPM
Chain of Human trophoblast cell-surface antigen (TROP-2) (human) (P09758 27-323): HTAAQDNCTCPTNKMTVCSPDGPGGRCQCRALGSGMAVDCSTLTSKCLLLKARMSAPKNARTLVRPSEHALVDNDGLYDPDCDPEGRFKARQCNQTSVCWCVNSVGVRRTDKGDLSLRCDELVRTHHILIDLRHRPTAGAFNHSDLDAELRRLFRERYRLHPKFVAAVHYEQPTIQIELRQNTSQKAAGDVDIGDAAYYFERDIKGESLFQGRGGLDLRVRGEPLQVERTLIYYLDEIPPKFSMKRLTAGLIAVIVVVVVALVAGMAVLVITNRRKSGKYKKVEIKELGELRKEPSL

With “humanized RS7 IgG (hRS7), anti-TROP-2 humanized antibody”, the values for the MFI in assay [1] and in [2] were 795 and 237, respectively.
With “epratuzumab (hLL2), humanized anti-CD22 IgG1 (antibody)”, the Median fluorescence is 22.9 with CD22 (human) [3]; 7.7 with CD22 (human) [4]; 45.9 in the assay with CD22 (human) [5]; 145 with CD22 (human) [6]; 10.3 with CD22 (human) [7]; 23.3 with CD22 (human) [8]. In addition, the Median fluorescence was found to be 16 in the assay with CD22 (human) [9], 40.8 with CD22 (human) [10] and 11.2 in the assay with CD22 (human) [11].
In the case of “milatuzumab (hLL1), humanized anti-CD74 antibody”, the MFI in assay [12] is 8; in [15], 17; in assay [16], 143; in [18], 185; in assay [20] it was 5; in assay [21], 114. Also, the MFI in assay [22] was 144; in [26] it was 9; in [27], 59; in assay [29], 22; in assay [30], 220; in assay [34] it was 248. The MFI in assay [36] was 16; in assay [40], 156. The MFI Ratio hLL1:bkgd in [13] stood at 28.5; in assay [14] it was 1.3; in assay [17], 31.2; in assay [19], 1.8; in assay [23], 36.7; in [24] it was 28.8. The MFI Ratio hLL1:bkgd was 30.8 in assay [25]; 1.5 in assay [28]; 28.6 in [31]; 5.3 in assay [32]; 49.6 in assay [33]; 1.6 in assay [35]. Further, the MFI Ratio hLL1:bkgd in [37] is 2.1; in assay [39], 19.6. Also, the Kd in assay [38] came out at 0.77 nM.

B1: hMN-15, humanized anti-CEACAM6 antibody (antibody, from a related filing, IgG1, V domains shown)
VH: QVQLVESGGGVVQPGRSLRLSCSSSGFALTDYYMSWVRQAPGKGLEWLGFIANKANGHTTDYSPSVKGRFTISRDNSKNTLFLQMDSLRPEDTGVYFCARDMGIRWNFDVWGQGTPVTVSS
VL: DIQLTQSPSSLSASVGDRVTMTCSASSRVSYIHWYQQKPGKAPKRWIYGTSTLASGVPARFSGSGSGTDFTFTISSLQPEDIATYYCQQWSYNPPTFGQGTKVEIKR
B1: the MFI is 175 in the assay with CEACAM6 (human) [41], 1120 with CEACAM6 (human) [42] and 81 with CEACAM6 (human) [43].

B2: veltuzumab (hA20), humanized anti-CD20 IgG1 (antibody, from a related filing, V domains shown, part only)
VH: QVQLQQSGAEVKKPGSSVKVSCKASGYTFTSYNMHWVKQAPGQGLEWIGAIYPGNGDTSYNQKFKGKATLTADESTNTAYMELSSLRSEDTAFYYCARSTYYGGDWYFDVWGQGTTVTVSS
VL: DIQLTQSPSSLSASVGDRVTMTCRASSSVSYIHWFQQKPGKAPKPWIYATSNLASGVPVRFSGSGSGTDYTFTISSLQPEDIATYYCQQWTSNPPTFGGGTKLEIK
Take B2: the Median fluorescence in the assay with CD20 (human) [44] stood at 12.3; with CD20 (human) [45] it was 97.4; in the assay with CD20 (human) [46] it was 422; with CD20 (human) [47] it was 3.7; with CD20 (human) [48], 815; in the assay with CD20 (human) [49] it was 21.5. The Median fluorescence with CD20 (human) [50] turned out to be 6.9; with CD20 (human) [51], 620; with CD20 (human) [52] it was 605.
